From patent US20220040297A1 (Chugai, published 2022)

T1: biotin-labeled human CD154 (human, UniProt P29965 113-261, limits assumed, biotin-labeled)
T1 construct: also called biotinylated human CD154
T1 sequence (looked up): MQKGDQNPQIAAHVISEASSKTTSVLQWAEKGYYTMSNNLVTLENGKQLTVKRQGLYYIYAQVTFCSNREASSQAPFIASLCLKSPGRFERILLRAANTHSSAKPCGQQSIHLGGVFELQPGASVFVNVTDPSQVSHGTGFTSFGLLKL


Target: T1, biotin-labeled human CD154
Assay: ECL competition: biotinylated CD154, CD3ε homodimer as competitor [1]
Method: Next, each obtained IgG was evaluated for its binding to CD3 and human CD154 at the same time by the competition method (electrochemiluminescence method (ECL method)).
A TBST solution containing 0.5% BSA (referred to as a blocking solution; the TBST solution was TBS (manufactured by Takara Bio Inc.) supplemented with 0.1% Tween 20) was added at 150 μL/well to streptavidin plate (MSD K.K.), and the plate was incubated at room temperature for 1 hour or longer. After removal of the blocking solution, each well was washed three times with 250 μL of a TBST solution. The antibody-antigen complex solution was added thereto at 50 L/well, and the plate was incubated at room temperature for 1 hour so that the biotinylated antigen-antibody-detection sulfo-tag antibody complex solution bound via the biotinylated antigen to the streptavidin plate. After removal of the antibody-antigen complex solution, each well was washed three times with a TBST solution, and a solution of 4× READ buffer (MSD K.K.) diluted 2-fold with water was added thereto at 150 μL/well, followed by the detection of the luminescence signal of the sulfo-tag using Sector Imager 2400 (MSD K.K.).

| Binder | Relative ECL reaction (to no antigen coating), CD3ε[+] |
| --- | --- |
| 154R3A01#2 (antibody, human IgG1, kappa, L234A L235A, N297A, One-arm antibody) heavy: QVQLVESGGGLVQPGRSLRLSCAASGFTFSNAWMHWVRQAPGKGLEWVAQIKDRVNQYANYYAESVKGRLTISRDDSKNSIYLQMNSLKTEDTAVYYCRYVHYGLTGYFSGQGGVDAWGQGTTVTVSSASTKGPSVFPLAPSSKSTSGGTAALGCLVKDYFPEPVTVSWNSGALTSGVHTFPAVLQSSGLYSLSSVVTVPSSSLGTQTYICNVNHKPSNTKVDKKVEPKSCDKTHTCPPCPAPEAAGGPSVFLFPPKPKDTLMISRTPEVTCVVVDVSHEDPEVKFNWYVDGVEVHNAKTKPREEQYASTYRVVSVLTVLHQDWLNGKEYKCKVSNKALPAPIEKTISKAKGQPREPQVYTLPPSRCELTKNQVSLSCAVKGFYPSDIAVEWESNGQPENNYKTTPPVLDSDGSFFLVSKLTVDKSRWQQGNVFSCSVMHEALHNHYTQKSLSLSPDYKDDDDK EPKSSDKTHTCPPCPAPELLGGPSVFLFPPKPKDTLMISRTPEVTCVVVDVSHEDPEVKFNWYVDGVEVHNAKTKPREEQYNSTYRVVSVLTVLHQDWLNGKEYKCKVSNKALPAPIEKTISKAKGQPREPQVCTLPPSRDELTKNQVSLWCLVKGFYPSDIAVEWESNGQPENNYKTTPPVLDSDGSFFLYSKLTVDKSRWQQGNVFSCSVMHEALHNRYTQKSLSLSP light: DIVMTQSPLSLPVTPGEPASISCRSSQSLVHSNRNTYLHWYQQKPGQAPRLLIYKVSNRFSGVPDRFSGSGSGTDFTLKISRVEAEDVGVYYCGQGTQVPYTFGQGTKLEIKRTVAAPSVFIFPPSDEQLKSGTASVVCLLNNFYPREAKVQWKVDNALQSGNSQESVTEQDSKDSTYSLSSTLTLSKADYEKHKVYACEVTHQGLSSPVTKSFNRGEC | 4 |
| 154R3A01#3 (antibody, human IgG1, kappa, L234A L235A, N297A, One-arm antibody) heavy: QVQLVESGGGLVQPGRSLRLSCAASGFAFSNAWMHWVRQAPGKGLEWVAQIKDRVNQYANYYAESVKGRFTISRDDSKNSIYLQMNSLKTEDTAVYYCRYVHYGLTGYFSGQGGVDAWGQGTTVTVSSASTKGPSVFPLAPSSKSTSGGTAALGCLVKDYFPEPVTVSWNSGALTSGVHTFPAVLQSSGLYSLSSVVTVPSSSLGTQTYICNVNHKPSNTKVDKKVEPKSCDKTHTCPPCPAPEAAGGPSVFLFPPKPKDTLMISRTPEVTCVVVDVSHEDPEVKFNWYVDGVEVHNAKTKPREEQYASTYRVVSVLTVLHQDWLNGKEYKCKVSNKALPAPIEKTISKAKGQPREPQVYTLPPSRCELTKNQVSLSCAVKGFYPSDIAVEWESNGQPENNYKTTPPVLDSDGSFFLVSKLTVDKSRWQQGNVFSCSVMHEALHNHYTQKSLSLSPDYKDDDDK EPKSSDKTHTCPPCPAPELLGGPSVFLFPPKPKDTLMISRTPEVTCVVVDVSHEDPEVKFNWYVDGVEVHNAKTKPREEQYNSTYRVVSVLTVLHQDWLNGKEYKCKVSNKALPAPIEKTISKAKGQPREPQVCTLPPSRDELTKNQVSLWCLVKGFYPSDIAVEWESNGQPENNYKTTPPVLDSDGSFFLYSKLTVDKSRWQQGNVFSCSVMHEALHNRYTQKSLSLSP light: DIVMTQSPLSLPVTPGEPASISCRSSQSLVHSNRNTYLHWYQQKPGQAPRLLIYKVSNRFSGVPDRFSGSGSGTDFTLKISRVEAEDVGVYYCGQGTQVPYTFGQGTKLEIKRTVAAPSVFIFPPSDEQLKSGTASVVCLLNNFYPREAKVQWKVDNALQSGNSQESVTEQDSKDSTYSLSSTLTLSKADYEKHKVYACEVTHQGLSSPVTKSFNRGEC | 19 |
| 154R3A01#4 (antibody, human IgG1, kappa, L234A L235A, N297A, One-arm antibody) heavy: QVQLVESGGGLVQPGRSLRLSCAASGFTFSNAWMHWVRQAPGKGLEWVAQIKDRVNQYANYYAECVKGRFTISRDDSKNSIYLQMNSLKTEDTAVYYCRYVHYGLTGYFSGQGGVDAWGQGTTVTVSSASTKGPSVFPLAPSSKSTSGGTAALGCLVKDYFPEPVTVSWNSGALTSGVHTFPAVLQSSGLYSLSSVVTVPSSSLGTQTYICNVNHKPSNTKVDKKVEPKSCDKTHTCPPCPAPEAAGGPSVFLFPPKPKDTLMISRTPEVTCVVVDVSHEDPEVKFNWYVDGVEVHNAKTKPREEQYASTYRVVSVLTVLHQDWLNGKEYKCKVSNKALPAPIEKTISKAKGQPREPQVYTLPPSRCELTKNQVSLSCAVKGFYPSDIAVEWESNGQPENNYKTTPPVLDSDGSFFLVSKLTVDKSRWQQGNVFSCSVMHEALHNHYTQKSLSLSPDYKDDDDK EPKSSDKTHTCPPCPAPELLGGPSVFLFPPKPKDTLMISRTPEVTCVVVDVSHEDPEVKFNWYVDGVEVHNAKTKPREEQYNSTYRVVSVLTVLHQDWLNGKEYKCKVSNKALPAPIEKTISKAKGQPREPQVCTLPPSRDELTKNQVSLWCLVKGFYPSDIAVEWESNGQPENNYKTTPPVLDSDGSFFLYSKLTVDKSRWQQGNVFSCSVMHEALHNRYTQKSLSLSP light: DIVMTQSPLSLPVTPGEPASISCRSSQSLVHSNRNTYLHWYQQKPGQAPRLLIYKVSNRFSGVPDRFSGSGSGTDFTLKISRVEAEDVGVYYCGQGTQVPYTFGQGTKLEIKRTVAAPSVFIFPPSDEQLKSGTASVVCLLNNFYPREAKVQWKVDNALQSGNSQESVTEQDSKDSTYSLSSTLTLSKADYEKHKVYACEVTHQGLSSPVTKSFNRGEC | 4 |
| 154R3B01#1 (antibody, human IgG1, kappa, L234A L235A, N297A, One-arm antibody) heavy: QVQLVESGGGLVQPGRSLRLSCAASGFTFSSAWMHWVRQAPGKGLEWVAQIKDKQNQYNAYYAESVKGRFTISRDDSKNSIYLQMNSLKTEDTAVYYCRYVHYATSDGFLPYFGVDAWGQGTTVTVSSASTKGPSVFPLAPSSKSTSGGTAALGCLVKDYFPEPVTVSWNSGALTSGVHTFPAVLQSSGLYSLSSVVTVPSSSLGTQTYICNVNHKPSNTKVDKKVEPKSCDKTHTCPPCPAPEAAGGPSVFLFPPKPKDTLMISRTPEVTCVVVDVSHEDPEVKFNWYVDGVEVHNAKTKPREEQYASTYRVVSVLTVLHQDWLNGKEYKCKVSNKALPAPIEKTISKAKGQPREPQVYTLPPSRCELTKNQVSLSCAVKGFYPSDIAVEWESNGQPENNYKTTPPVLDSDGSFFLVSKLTVDKSRWQQGNVFSCSVMHEALHNHYTQKSLSLSPDYKDDDDK EPKSSDKTHTCPPCPAPELLGGPSVFLFPPKPKDTLMISRTPEVTCVVVDVSHEDPEVKFNWYVDGVEVHNAKTKPREEQYNSTYRVVSVLTVLHQDWLNGKEYKCKVSNKALPAPIEKTISKAKGQPREPQVCTLPPSRDELTKNQVSLWCLVKGFYPSDIAVEWESNGQPENNYKTTPPVLDSDGSFFLYSKLTVDKSRWQQGNVFSCSVMHEALHNRYTQKSLSLSP light: DIVMTQSPLSLPVTPGEPASISCRSSQSLVHSNRNTYLHWYQQKPGQAPRLLIYKVSNRFSGVPDRFSGSGSGTDFTLKISRVEAEDVGVYYCGQGTQVPYTFGQGTKLEIKRTVAAPSVFIFPPSDEQLKSGTASVVCLLNNFYPREAKVQWKVDNALQSGNSQESVTEQDSKDSTYSLSSTLTLSKADYEKHKVYACEVTHQGLSSPVTKSFNRGEC | 18 |
| 154R3F02#2 (antibody, human IgG1, kappa, L234A L235A, N297A, One-arm antibody) heavy: QVQLVESGGGLVQPGRSLRLSCAASGFTFSNAWMHWVRQAPGKGLEWVAQIKDRASGYNNYYAESVKGRFTISRDDSKNSIYLQMNSLKTEDTAVYYCRYVHYAQSVSAFFQYGVDAWGQGTTVTVSSASTKGPSVFPLAPSSKSTSGGTAALGCLVKDYFPEPVTVSWNSGALTSGVHTFPAVLQSSGLYSLSSVVTVPSSSLGTQTYICNVNHKPSNTKVDKKVEPKSCDKTHTCPPCPAPEAAGGPSVFLFPPKPKDTLMISRTPEVTCVVVDVSHEDPEVKFNWYVDGVEVHNAKTKPREEQYASTYRVVSVLTVLHQDWLNGKEYKCKVSNKALPAPIEKTISKAKGQPREPQVYTLPPSRCELTKNQVSLSCAVKGFYPSDIAVEWESNGQPENNYKTTPPVLDSDGSFFLVSKLTVDKSRWQQGNVFSCSVMHEALHNHYTQKSLSLSPDYKDDDDK EPKSSDKTHTCPPCPAPELLGGPSVFLFPPKPKDTLMISRTPEVTCVVVDVSHEDPEVKFNWYVDGVEVHNAKTKPREEQYNSTYRVVSVLTVLHQDWLNGKEYKCKVSNKALPAPIEKTISKAKGQPREPQVCTLPPSRDELTKNQVSLWCLVKGFYPSDIAVEWESNGQPENNYKTTPPVLDSDGSFFLYSKLTVDKSRWQQGNVFSCSVMHEALHNRYTQKSLSLSP light: DIVMTQSPLSLPVTPGEPASISCRSSQSLVHSNRNTYLHWYQQKPGQAPRLLIYKVSNRFSGVPDRFSGSGSGTDFTLKISRVEAEDVGVYYCGQGTQVPYTFGQGTKLEIKRTVAAPSVFIFPPSDEQLKSGTASVVCLLNNFYPREAKVQWKVDNALQSGNSQESVTEQDSKDSTYSLSSTLTLSKADYEKHKVYACEVTHQGLSSPVTKSFNRGEC | 16 |
| 154R4B03#1 (antibody, human IgG1, kappa, L234A L235A, N297A, One-arm antibody) heavy: QVQLVESGGGLVQPGRSLRLSCAASGFTFSNAWMHWVRQAPGKGLEWVAQIKDKQSQYANYYAPSVKGRFTISRDDSKNSIYLQMNSLKTEDTAVYYCRYVHYQSTSYSFYQGGVDAWGQGTTVTVSSASTKGPSVFPLAPSSKSTSGGTAALGCLVKDYFPEPVTVSWNSGALTSGVHTFPAVLQSSGLYSLSSVVTVPSSSLGTQTYICNVNHKPSNTKVDKKVEPKSCDKTHTCPPCPAPEAAGGPSVFLFPPKPKDTLMISRTPEVTCVVVDVSHEDPEVKFNWYVDGVEVHNAKTKPREEQYASTYRVVSVLTVLHQDWLNGKEYKCKVSNKALPAPIEKTISKAKGQPREPQVYTLPPSRCELTKNQVSLSCAVKGFYPSDIAVEWESNGQPENNYKTTPPVLDSDGSFFLVSKLTVDKSRWQQGNVFSCSVMHEALHNHYTQKSLSLSPDYKDDDDK EPKSSDKTHTCPPCPAPELLGGPSVFLFPPKPKDTLMISRTPEVTCVVVDVSHEDPEVKFNWYVDGVEVHNAKTKPREEQYNSTYRVVSVLTVLHQDWLNGKEYKCKVSNKALPAPIEKTISKAKGQPREPQVCTLPPSRDELTKNQVSLWCLVKGFYPSDIAVEWESNGQPENNYKTTPPVLDSDGSFFLYSKLTVDKSRWQQGNVFSCSVMHEALHNRYTQKSLSLSP light: DIVMTQSPLSLPVTPGEPASISCRSSQSLVHSNRNTYLHWYQQKPGQAPRLLIYKVSNRFSGVPDRFSGSGSGTDFTLKISRVEAEDVGVYYCGQGTQVPYTFGQGTKLEIKRTVAAPSVFIFPPSDEQLKSGTASVVCLLNNFYPREAKVQWKVDNALQSGNSQESVTEQDSKDSTYSLSSTLTLSKADYEKHKVYACEVTHQGLSSPVTKSFNRGEC | 18 |
